The source of these data is patent US20100145007A1 (Janssen / Centocor, published 2010).

Assay [1] addresses T1, human GPCR135 (human, UniProt Q9NSD7 1-469).
T1 construct: whole, on cells; also called SALPR
T1 sequence (looked up): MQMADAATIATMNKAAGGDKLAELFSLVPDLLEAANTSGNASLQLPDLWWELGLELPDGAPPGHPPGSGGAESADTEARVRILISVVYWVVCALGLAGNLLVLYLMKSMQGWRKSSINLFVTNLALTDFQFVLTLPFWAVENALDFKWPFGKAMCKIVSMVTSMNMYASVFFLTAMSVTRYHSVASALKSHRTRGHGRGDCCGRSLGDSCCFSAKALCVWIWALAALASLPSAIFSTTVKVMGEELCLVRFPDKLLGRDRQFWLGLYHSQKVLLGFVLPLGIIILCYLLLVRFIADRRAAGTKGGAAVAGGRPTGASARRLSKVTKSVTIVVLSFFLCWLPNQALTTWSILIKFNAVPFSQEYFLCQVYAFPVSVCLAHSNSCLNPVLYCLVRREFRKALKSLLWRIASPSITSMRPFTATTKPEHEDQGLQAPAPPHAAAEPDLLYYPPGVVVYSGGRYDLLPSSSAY
Nature of the assay: radioligand competition, 50 pM 125I-R3/I5 tracer, COS-7 cells transiently expressing human GPCR135. From the text: (§1) COS-7 cells in 24-well tissue culture plates transiently expressing GPCR135, GPCR142 or LGR7 were used in radioligand binding assays as described by Liu et al., 2005a, J. Biol. Chem., 280:292-300. ¹²⁵I-Relaxin-3/INSL5 (¹²⁵I-R3/I5), a radiolabeled chimeric peptide with the human relaxin-3 B-chain and the human INSL5 A-chain (Liu et al., 2005b), was used at a final concentration of 50 pM as the tracer to characterize the binding properties of all truncated relaxin-3 peptides for GPCR135 and GPCR142. ¹²⁵I-relaxin-2 (PerkinElmer Biosciences, Boston) was used at a final concentration of 50 pM to characterize the binding properties of the truncated peptides for the relaxin receptor (LGR7). The results were analyzed by GraphPad Prism 4.0 software (Graphpad, San Diego). The IC₅₀ values, which are the ligand concentrations that inhibited 50% of the maximum specific binding, were then calculated.

Assay [2] concerns the target T2, human LGR7 (human, UniProt Q9HBX9 1-757).
T2 construct: whole, on cells; also called relaxin receptor
T2 sequence (looked up): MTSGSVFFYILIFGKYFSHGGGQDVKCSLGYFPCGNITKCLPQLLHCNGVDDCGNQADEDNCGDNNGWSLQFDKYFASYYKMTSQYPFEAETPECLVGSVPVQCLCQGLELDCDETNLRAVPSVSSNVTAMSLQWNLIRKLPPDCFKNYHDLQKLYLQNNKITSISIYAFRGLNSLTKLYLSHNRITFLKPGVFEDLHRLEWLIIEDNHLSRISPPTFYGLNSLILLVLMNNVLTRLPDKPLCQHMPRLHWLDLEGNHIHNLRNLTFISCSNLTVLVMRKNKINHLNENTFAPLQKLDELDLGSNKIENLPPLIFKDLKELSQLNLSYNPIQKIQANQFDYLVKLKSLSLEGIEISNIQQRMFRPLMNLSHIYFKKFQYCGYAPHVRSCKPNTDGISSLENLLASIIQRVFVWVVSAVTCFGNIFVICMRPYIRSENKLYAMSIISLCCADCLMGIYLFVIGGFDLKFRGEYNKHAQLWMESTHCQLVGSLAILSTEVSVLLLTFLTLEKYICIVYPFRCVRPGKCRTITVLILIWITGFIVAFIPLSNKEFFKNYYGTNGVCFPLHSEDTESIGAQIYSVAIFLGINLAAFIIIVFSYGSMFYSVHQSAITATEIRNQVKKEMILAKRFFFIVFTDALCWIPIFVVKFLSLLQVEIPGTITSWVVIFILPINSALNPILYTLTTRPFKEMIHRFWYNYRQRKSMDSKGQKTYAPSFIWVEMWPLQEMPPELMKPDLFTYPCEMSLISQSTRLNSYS
Nature of the assay: radioligand competition, 50 pM 125I-relaxin-2 tracer, COS-7 cells transiently expressing human LGR7.
Excerpt: as §1

Assay [3] concerns the target T3, human GPCR142 (human, UniProt Q8TDU9 1-374).
T3 construct: whole, on cells
Nature of the assay: radioligand competition, 50 pM 125I-R3/I5 tracer, COS-7 cells transiently expressing human GPCR142.
Excerpt: as §1

Assay [4] deals with T2, human LGR7. The experiment in a line: cell-based or functional assay.
In assay [5] the target is T4, rat GPCR135 (rat, UniProt Q5Y987 29-469). The experiment in a line: radioligand competition, 125I-R3/I5 tracer, COS-7 cells transiently expressing recombinant rat GPCR135.
Assay [6] concerns the target T5, rat LGR7 (rat, UniProt Q6R6I6 1-758).
T5 construct: whole, on cells; also called recombinant rat LGR7
T5 sequence (looked up): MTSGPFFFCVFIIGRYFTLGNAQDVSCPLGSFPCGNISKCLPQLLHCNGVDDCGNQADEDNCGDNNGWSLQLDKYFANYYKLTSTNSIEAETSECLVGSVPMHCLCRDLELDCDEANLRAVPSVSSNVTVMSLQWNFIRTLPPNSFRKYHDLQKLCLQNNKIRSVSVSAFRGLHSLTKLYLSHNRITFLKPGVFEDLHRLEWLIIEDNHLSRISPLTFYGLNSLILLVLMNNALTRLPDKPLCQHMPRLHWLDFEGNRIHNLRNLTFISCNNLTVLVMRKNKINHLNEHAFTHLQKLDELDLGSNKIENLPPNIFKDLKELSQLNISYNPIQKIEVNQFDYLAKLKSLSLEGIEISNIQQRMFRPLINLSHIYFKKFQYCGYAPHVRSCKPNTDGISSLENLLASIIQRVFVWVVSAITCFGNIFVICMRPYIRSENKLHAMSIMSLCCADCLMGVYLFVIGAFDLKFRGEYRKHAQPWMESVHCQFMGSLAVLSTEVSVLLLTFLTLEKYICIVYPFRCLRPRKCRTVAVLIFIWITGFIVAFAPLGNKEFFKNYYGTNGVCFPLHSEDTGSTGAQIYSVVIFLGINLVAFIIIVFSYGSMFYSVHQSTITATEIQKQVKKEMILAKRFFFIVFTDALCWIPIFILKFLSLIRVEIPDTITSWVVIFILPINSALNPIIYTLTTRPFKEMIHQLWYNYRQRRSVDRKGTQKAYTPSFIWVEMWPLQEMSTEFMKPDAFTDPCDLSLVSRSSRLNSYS
Nature of the assay: radioligand competition, 125I-relaxin-2 tracer, COS-7 cells transiently expressing rat LGR7.
Excerpt: FIG. 3 illustrates that R3(BΔ23-27)R/I5 is bound by recombinant rat GPCR135 with high affinity, but not by rat LGR7. COS-7 cells transiently expressing recombinant rat GPCR135 or LGR7 were used to characterize the binding affinity of rat GPCR135 (A) and LGR7 for (B) R3(BΔ23-27)R/I5. ¹²⁵I-R3/I5 was used as the tracer for GPCR135 and ¹²⁵I-relaxin-2 was used as the tracer for LGR7 binding. Various concentrations of R3(BΔ23-27)R/I5 were used as the competitor and unlabeled human relaxin-3 was used as the positive control in the binding assay.
as §1, with “The IC₅₀ values, which are the ligand concentrations that inhibited 50% of the maximum specific binding, were then calculated.” left out

For assay [7], the target named is T2, human LGR7. The experiment in a line: radioligand competition, 50 pM 125I-relaxin-2 tracer, COS-7 cells transiently expressing human LGR7; NA = no affinity was observed in radioligand binding assay.
Excerpt: as §1

Assay [8] addresses T4, rat GPCR135. Nature of the assay: autoradiography, displacement of 125I-R3/I5 from endogenous GPCR135 in rat brain sections.

T3 sequence (Q8TDU9 whole entry): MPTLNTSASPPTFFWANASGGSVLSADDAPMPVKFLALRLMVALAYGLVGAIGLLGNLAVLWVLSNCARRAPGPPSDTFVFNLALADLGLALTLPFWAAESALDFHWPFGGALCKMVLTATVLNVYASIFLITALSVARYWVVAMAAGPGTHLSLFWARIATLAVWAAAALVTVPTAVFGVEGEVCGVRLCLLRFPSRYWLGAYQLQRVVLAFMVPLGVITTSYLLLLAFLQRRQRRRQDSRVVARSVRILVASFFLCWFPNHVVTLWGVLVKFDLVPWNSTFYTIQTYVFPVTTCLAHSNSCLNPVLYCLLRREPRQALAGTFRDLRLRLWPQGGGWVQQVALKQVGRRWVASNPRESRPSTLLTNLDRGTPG
T4 sequence (Q5Y987 entry or part of it): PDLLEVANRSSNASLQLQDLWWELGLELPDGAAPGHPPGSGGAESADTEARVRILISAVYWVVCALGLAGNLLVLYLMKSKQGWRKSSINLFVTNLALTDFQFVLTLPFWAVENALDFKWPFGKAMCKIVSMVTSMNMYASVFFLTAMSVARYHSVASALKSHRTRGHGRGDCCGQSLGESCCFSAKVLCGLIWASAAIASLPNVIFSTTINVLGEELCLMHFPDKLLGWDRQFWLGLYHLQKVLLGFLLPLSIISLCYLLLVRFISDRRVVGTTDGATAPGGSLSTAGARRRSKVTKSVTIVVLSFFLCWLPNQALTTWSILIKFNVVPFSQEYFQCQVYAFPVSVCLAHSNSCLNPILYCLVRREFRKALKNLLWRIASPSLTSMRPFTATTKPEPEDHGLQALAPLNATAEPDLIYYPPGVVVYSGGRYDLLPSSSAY

B1: R3(BΔ23-27)R (peptide)
chain 1: RAAPYGVRLCGREFIRAVIFTCR
chain 2: DVLAGLSSSCCKWGCSKSEISSLC
notes: probably a misprint
On to B1, for which the IC50 in assay [1] is 0.95 nM; in assay [2], roughly 200 nM; in assay [3] it was 3.91 nM.

B2: R3(BΔ24-27) (peptide)
chain 1: RAAPYGVRLCGREFIRAVIFTCG
chain 2: DVLAGLSSSCCKWGCSKSEISSLC
On to B2, for which the IC50 was determined as 13.5 nM in assay [1], 8.9 nM in assay [2] and 18.9 nM in assay [3]. Further, in assay [4], the “EC50, stimulation of β-gal expression in SK-N-MC/CRE-β-gal cells expressing human LGR7” value (“EC50, stimulation of β-gal expression” below) was 4.3 nM.

B3: R3(BΔ23-27)R/I5 (peptide)
chain 1: RAAPYGVRLCGREFIRAVIFTCR
chain 2: EDLQTLCCTDGCSMTDLSALC
modifications: N-terminal pyro-Glu ("<E")
notes: Chimeric two-chain peptide; also called R3(Δ23-27)R/I5; R3(ΔB23-27)R/I5
On to B3, for which the IC50 in assay [1] was 0.67 nM; in assay [5], 0.25 nM; in assay [8] it was 0.4 nM; in assay [3], 2.29 nM. For the same molecule, the binding result in assay [6] and in assay [7] was “no binding” in each case.

B4: R3(BΔ25-27) (peptide)
chain 1: RAAPYGVRLCGREFIRAVIFTCGG
chain 2: DVLAGLSSSCCKWGCSKSEISSLC
For the molecule B4, the IC50 in assay [1] came to 9.5 nM; in assay [2] it was 7.9 nM; in assay [3] it was 11.9 nM. Also, in assay [4], the “EC50, stimulation of β-gal expression” value came out at 4.1 nM.

B5: R3(BΔ26-27) (peptide)
chain 1: RAAPYGVRLCGREFIRAVIFTCGGS
chain 2: DVLAGLSSSCCKWGCSKSEISSLC
Take B5: the IC50 in assay [1] worked out at 11.5 nM; in assay [2], 6.3 nM; in assay [3], 9.5 nM. The “EC50, stimulation of β-gal expression” value in assay [4] worked out at 3.3 nM.
